“Also recorded” adds a separate entry of the source. Ends that are not written are not given here.
Experiments:
[1] = target: T1, phospholipase C-β2 (PLC-β2) (Homo sapiens, UniProt Q00722); experiment: PLC assay, [3H]PIP2 hydrolysis by recombinant PLC-β2; type: biochemical; settings: for affinity of PLC-β2 stimulation compared with parent or comparator peptide (in words) / maximal stimulation / efficacy on PLC-β2 (in words): concentration-effect curves; for effect on Gβγ stimulation of PLC-β2 (in words): Gβγ 100 nM; for stimulation of PLC-β2 activity by peptide itself (in words): basal, no Gβγ unless stated, short peptides at 100 μM
T1 construct: made in house; host or cells: High 5 insect cells (baculovirus); cytosolic fraction used, not purified
Experimental: Recombinant PLC-β2 was expressed in High 5 cells by infection with recombinant baculovirus. Three to four days after infection, the cells were lysed by par bombing to 600 psi. The lysate was then centrifuged, and the cytosolic fraction was collected. Approximately 10-15 μg of cytosolic fraction was used per 100 μl reaction volume. Phospholipid substrate is a mixture of [3H]PIP2 and unlabeled phospholipids. Unlabeled phospholipids, from Sigma (P-6023), are crude phospholipids from bovine brain. The total diphosphoinositide and triphosphoinositide content is 20-40%. The remainder is a mixture of phosphotidylinositol and phosphotidylserine. Phospholipids are sonicated in 10 mM Hepes pH 7.0 to form micelles. A total of 0.01 μCi of [3H]PIP2, corresponding to approximately 7000 cpm, and 5 μg of unlabeled mixed phospholipids are used per reaction.
The PLC assay was performed as previously described (De Vivo, 1994, Meth. Enzymol. 238, 131). Briefly, substrate, PLC-β2, peptide, and Gβγ subunits are mixed on ice in a 100 μl volume buffer containing 10 mM Hepes pH 7.0, 1 mM DTT, 100 mM KCl, 10 mM NaCl, 2 mM EGTA, 1 mM EDTA, and 1 mM MgCl2. Reactions are started by the addition of 25 μl 5 mM CaCl2 and incubated at 32 degrees C. for 15 minutes. Reactions are stopped by the addition of 1 ml CMH (chloroform:methanol:H2O=100:100:1 by volume) and 250 μl 10 mM EDTA. After extraction, 400 μl aqueous phase is counted using a Beckman scintillation counter. All experiments were repeated at least thrice with very similar results. For concentration-effect curves, typical experiments are shown.

adenylyl cyclase 1 (AC1) = target: T2, adenylyl cyclase 1 (AC1) (Bos taurus, UniProt P19754); experiment: Adenylyl cyclase assay, recombinant AC1 in Sf9 cell membranes; type: biochemical, bovine; settings: for inhibition of Ca2+/CaM-stimulated AC1 activity by peptide alone (in words): CaM 100 nM; for blockade of Gβγ inhibition of Ca2+/CaM-stimulated AC1: CaM 100 nM plus Gβγ 30 nM
T2 construct: made in house; host or cells: Sf9 cells (baculovirus); membranes used
Text: (§1) Expression of G-Protein Subunits And Adenylyl Cyclases. Gβγ was purified from bovine brain (Dingus et al., 1994, Meth. Enzymol. 237, 457-471). Q227L-Gαs was expressed in rabbit reticulocyte lysates. AC2 was expressed in Sf9 cells by infection with recombinant baculovirus (Jacobowitz and Iyengar, 1994, Proc. Natl. Acad. Sci. U.S.A. 91, 10630-10634). AC2 assays have been described (Chen et al., 1995, Science 268, 1166-1169). Bovine AC1 (Jacobowitz et al., 1993, J. Biol. Chem. 268, 3829-3832) was epitope tagged at the N terminus with the FLAG epitope (Jacobowitz and Iyengar, 1994, Proc. Natl. Acad. Sci. U.S.A. 91, 10630-10634) and expressed in Sf9 cells by baculovirus infection.
(§2) Adenylyl Cyclase Assays. AC2 assays have been described (Chen et al., 1995, Science 268, 1166-1169). When required the peptides were mixed with adenylyl cyclase containing membranes and held on ice for 10 min prior to assays. Approximately 1-4 μg of AC2 Sf9 cell membranes per assay tube was used. All assays contained a mixture of protease inhibitors. The final concentration of each inhibitor was leupeptin at 3.2 μg/ml, aprotinin at 2 μg/ml, phenanthroline at 1.0 mM, and phenylmethylsulfonyl fluoride at 1.0 mM. To study Gβγ inhibition, AC1-containing Sf9 cell membranes (1-4 μg per assay tube) was used. In these assays, in addition to the other standard reagents, the assay mixture contained either 1 mM EGTA or 50 μM CaCl2 plus 100 nM calmodulin (CaM). All experiments were repeated two or more times with qualitatively similar results. Typical experiments are shown. Values are mean±SD of triplicate determinations.

adenylyl cyclase 2 (AC2) = target: T3, adenylyl cyclase 2 (AC2) (Rattus norvegicus, UniProt P26769); experiment: Adenylyl cyclase assay, recombinant AC2 in Sf9 cell membranes; type: biochemical; settings: αs* 2 nM plus Gβγ 50 nM; TTN at 100 μM
T3 construct: made in house; host or cells: Sf9 cells (baculovirus); membranes used
Text: as §1
as §2, with “In these assays, in addition to the other standard reagents, the assay mixture contained either 1 mM EGTA or 50 μM CaCl2 plus 100 nM calmodulin (CaM). All experiments were repeated two or more times with qualitatively similar results. Typical experiments are shown. Values are mean±SD of triplicate determinations.” left out

PLC-β2 = target: T4, PLC-β2 (Homo sapiens, UniProt Q00722); experiment: Fluorescent resonance energy transfer binding of DABMI-labeled peptide to Cascade Blue-labeled PLC-β2; settings: FRET
T4 construct: made in house; host or cells: Sf9 cells; purified as in Runnel et al. 1996
Experimental: For fluorescent resonance energy transfer experiments, recombinant PLC-β2 was expressed in Sf9 cells and purified as described (Runnel et al., 1996, Biochem. 35, 16824) and labeled with the amine-reactive probe, Cascade Blue acetyl azide (Molecular Probes, Eugene Oreg.) by raising the pH to 8.0 and adding a 4-fold excess of probe from a freshly prepared concentrated DMF solution. The reaction was kept on ice for 30 minutes before extensive dialysis in a solution comprising 20 mM Hepes, 0.16 M NaCl, 1 mM DTT, pH 7.2 to remove excess probe. Peptides were labeled with DABMI (4-dimethyl-5aminophenylazophenyl-4′-maleimeide) using an equimolar amount of dye in the absence of reducing agents. The reaction was allowed to proceed for 30 minutes at room temperature before quenching with 5 mM DTT. The final labeling ratios, as determined by absorption, were 1:1 for CB-PLC-β2 and 0.8 for the two DABMI-peptides. Fluorescence spectra were taken on an ISS-PCL (ISS Champaign, Ill.) photon counting spectrofluorometer using a 3×3 mm cuvette and exciting at 380 nm and scanning from 400-560 nm.

T1 sequence (Q00722 whole entry): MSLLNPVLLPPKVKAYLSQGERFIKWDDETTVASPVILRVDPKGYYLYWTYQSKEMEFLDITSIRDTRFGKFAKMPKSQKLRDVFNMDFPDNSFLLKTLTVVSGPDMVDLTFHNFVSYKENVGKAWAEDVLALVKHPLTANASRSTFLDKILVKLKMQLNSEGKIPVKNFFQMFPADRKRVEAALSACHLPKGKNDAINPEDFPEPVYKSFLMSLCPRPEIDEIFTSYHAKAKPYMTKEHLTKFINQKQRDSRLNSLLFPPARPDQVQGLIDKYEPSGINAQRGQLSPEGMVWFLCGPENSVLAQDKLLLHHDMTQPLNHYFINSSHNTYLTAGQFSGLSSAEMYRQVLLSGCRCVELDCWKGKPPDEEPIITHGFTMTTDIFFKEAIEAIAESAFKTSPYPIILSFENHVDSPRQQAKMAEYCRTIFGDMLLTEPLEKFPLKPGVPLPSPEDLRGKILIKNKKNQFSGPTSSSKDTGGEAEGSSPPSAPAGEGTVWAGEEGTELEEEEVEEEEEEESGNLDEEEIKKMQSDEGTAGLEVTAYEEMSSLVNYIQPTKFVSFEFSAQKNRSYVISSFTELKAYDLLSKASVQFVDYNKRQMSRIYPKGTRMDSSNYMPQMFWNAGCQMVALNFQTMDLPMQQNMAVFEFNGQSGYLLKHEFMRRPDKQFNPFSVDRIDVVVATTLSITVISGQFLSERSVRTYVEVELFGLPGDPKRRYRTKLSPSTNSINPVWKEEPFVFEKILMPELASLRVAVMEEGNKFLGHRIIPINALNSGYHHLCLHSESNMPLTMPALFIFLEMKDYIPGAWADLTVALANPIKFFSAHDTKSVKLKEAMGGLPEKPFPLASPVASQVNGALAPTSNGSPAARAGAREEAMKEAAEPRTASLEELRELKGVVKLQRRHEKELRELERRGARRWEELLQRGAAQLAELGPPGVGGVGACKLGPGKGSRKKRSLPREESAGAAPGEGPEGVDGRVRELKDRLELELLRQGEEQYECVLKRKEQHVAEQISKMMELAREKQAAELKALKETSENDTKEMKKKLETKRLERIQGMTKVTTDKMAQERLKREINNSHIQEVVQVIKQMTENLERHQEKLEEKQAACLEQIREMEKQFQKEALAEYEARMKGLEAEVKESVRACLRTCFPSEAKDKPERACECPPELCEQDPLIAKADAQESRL
T2 sequence (P19754 whole entry): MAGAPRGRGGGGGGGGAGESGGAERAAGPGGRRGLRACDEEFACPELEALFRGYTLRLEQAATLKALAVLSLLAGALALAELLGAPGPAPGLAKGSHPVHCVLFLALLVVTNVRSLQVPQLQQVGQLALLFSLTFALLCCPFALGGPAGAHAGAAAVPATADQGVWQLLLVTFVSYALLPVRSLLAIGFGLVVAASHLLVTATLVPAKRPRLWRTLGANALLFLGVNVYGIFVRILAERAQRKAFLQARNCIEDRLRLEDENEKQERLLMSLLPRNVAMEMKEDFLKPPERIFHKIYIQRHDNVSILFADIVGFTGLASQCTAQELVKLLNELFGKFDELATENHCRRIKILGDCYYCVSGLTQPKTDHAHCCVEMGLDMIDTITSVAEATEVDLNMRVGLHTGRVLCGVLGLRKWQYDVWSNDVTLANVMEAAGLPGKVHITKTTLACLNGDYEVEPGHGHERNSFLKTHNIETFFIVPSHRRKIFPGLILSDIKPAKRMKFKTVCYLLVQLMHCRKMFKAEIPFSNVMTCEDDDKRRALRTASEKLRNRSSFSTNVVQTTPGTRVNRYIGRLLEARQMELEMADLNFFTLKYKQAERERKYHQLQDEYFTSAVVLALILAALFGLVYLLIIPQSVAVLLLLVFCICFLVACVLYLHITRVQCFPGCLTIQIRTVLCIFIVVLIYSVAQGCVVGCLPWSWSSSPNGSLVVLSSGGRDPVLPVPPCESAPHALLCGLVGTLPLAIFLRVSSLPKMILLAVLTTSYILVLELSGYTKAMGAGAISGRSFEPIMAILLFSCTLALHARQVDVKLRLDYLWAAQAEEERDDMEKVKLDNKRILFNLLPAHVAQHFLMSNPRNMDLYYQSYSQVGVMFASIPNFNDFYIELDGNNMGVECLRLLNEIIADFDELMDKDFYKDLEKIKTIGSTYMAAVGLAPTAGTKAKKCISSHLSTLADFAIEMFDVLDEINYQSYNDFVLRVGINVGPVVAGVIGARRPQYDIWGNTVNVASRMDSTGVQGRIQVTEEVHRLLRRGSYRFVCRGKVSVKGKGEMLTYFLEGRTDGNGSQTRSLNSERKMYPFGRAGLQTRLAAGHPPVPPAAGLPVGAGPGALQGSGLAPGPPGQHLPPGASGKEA
T3 sequence (P26769 whole entry): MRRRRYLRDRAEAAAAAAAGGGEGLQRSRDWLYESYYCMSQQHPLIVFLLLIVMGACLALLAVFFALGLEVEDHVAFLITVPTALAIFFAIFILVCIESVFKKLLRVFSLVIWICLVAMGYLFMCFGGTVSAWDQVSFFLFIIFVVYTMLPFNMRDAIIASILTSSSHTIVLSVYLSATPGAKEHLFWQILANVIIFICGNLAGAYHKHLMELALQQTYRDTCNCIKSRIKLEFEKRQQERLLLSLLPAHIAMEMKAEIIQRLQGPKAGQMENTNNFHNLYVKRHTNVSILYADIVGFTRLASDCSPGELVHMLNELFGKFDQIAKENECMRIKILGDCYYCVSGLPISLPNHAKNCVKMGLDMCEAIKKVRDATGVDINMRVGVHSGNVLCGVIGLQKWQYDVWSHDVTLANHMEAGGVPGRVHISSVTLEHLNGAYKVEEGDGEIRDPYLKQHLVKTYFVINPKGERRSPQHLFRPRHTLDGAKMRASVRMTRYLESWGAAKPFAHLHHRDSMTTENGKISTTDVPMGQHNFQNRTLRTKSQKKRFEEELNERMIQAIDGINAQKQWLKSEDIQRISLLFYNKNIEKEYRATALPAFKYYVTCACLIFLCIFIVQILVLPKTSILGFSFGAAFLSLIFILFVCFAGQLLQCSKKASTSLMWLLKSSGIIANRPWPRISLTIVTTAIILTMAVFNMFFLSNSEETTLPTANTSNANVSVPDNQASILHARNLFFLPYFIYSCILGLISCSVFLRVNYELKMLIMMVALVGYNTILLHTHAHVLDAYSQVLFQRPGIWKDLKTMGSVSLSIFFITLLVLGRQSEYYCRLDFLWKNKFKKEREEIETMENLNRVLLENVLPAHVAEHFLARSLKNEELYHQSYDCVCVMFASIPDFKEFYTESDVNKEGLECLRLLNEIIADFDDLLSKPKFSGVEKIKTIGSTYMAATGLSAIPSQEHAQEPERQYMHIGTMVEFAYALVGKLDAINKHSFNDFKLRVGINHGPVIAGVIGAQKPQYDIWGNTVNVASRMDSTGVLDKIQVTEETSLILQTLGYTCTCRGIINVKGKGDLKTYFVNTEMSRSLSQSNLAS
T4 sequence (Q00722 whole entry): as the sequence (Q00722 whole entry) above

Row | Substance | affinity of PLC-β2 stimulation compared with parent or comparator peptide (in words) [1] | stimulation of PLC-β2 activity by peptide itself (in words) [1] | further results
1 | H91A: Gβ86-105 peptide with H91A substitution (TTNKVAAIPLRSSWVMTCAY) | decreased the affinity |  | maximal stimulation / efficacy on PLC-β2 (in words) [1]: did not affect maximal stimulation
2 | R96A: Gβ86-105 peptide with R96A substitution (TTNKVHAIPLASSWVMTCAY) | decreased the affinity; also recorded: large shift in affinity |  | maximal stimulation / efficacy on PLC-β2 (in words) [1]: did not affect maximal stimulation
3 | Gβ96-98: three amino acid peptide encoding Gβ residues 96-98 (RSS) |  | did not stimulate | 
4 | Gβ89-101: thirteen amino acid peptide encoding Gβ residues 89-101 (SEQ ID NO:7) (KVHAIPLRSSWVM; listed as Homo sapiens) |  | did stimulate | 
5 | S97, 98D Gβ96-101: six amino acid Gβ96-101 peptide with serines 97 and 98 substituted with Asp (RDDWVM) |  | did not stimulate | 
6 | S98R Gβ96-101: six amino acid Gβ96-101 peptide with arginine substituted at position 98 (RSRWVM; UniProt P62873 96-101, looked up, variant S98R) | increase affinity |  | 
7 | FLLT: unrelated peptide encoding region 660-688 of adenylyl cyclase 6, same overall charge as Gβ86-105 (KYSRKVDPRFGAYVACALLVFCFICFIQL; UniProt O43306 660-688, looked up, fragment) [reference compound] |  | no measurable effects | 
8 | m-GGL: Gβ115-135 peptide with Tyr-124 converted to Val (GGLDNICSIVNLKTREGNVRV) |  |  | inhibition of Ca2+/CaM-stimulated AC1 activity by peptide alone (in words) (adenylyl cyclase 1 (AC1)): did not inhibit the AC1 activity as extensively; blockade of Gβγ inhibition of Ca2+/CaM-stimulated AC1 (adenylyl cyclase 1 (AC1)): no effect; inhibition of Gβγ-stimulated AC2 activity (adenylyl cyclase 2 (AC2)): less effective; effect on Gβγ stimulation of PLC-β2 (in words) [1]: inactive
9 | K89A: Gβ86-105 peptide with K89A substitution (TTNAVHAIPLRSSWVMTCAY) | decreased the affinity |  | maximal stimulation / efficacy on PLC-β2 (in words) [1]: did not affect maximal stimulation
10 | S97R substituted peptide: six amino acid Gβ96-101 peptide with arginine at position 97 (SEQ ID NO:10) (RRSWVM; listed as Homo sapiens) | increase affinity; also recorded: higher affinity |  | 
11 | Gβ96-101: six amino acid peptide encoding Gβ residues 96-101 (SEQ ID NO:8) (RSSWVM; listed as Homo sapiens) | considerably lower affinity | did stimulate | 
12 | S97,98R Gβ86-105 peptide: Gβ86-105 peptide with both serines 97 and 98 substituted with arginine (TTNKVHAIPLRRRWVMTCAY) |  |  | increase in affinity of PLC-β2 stimulation versus Gβ86-105 peptide ([1]; substituted Gβ86-105 peptides): five-fold increase

More lines, main results first:

Row | affinity of PLC-β2 stimulation compared with parent or comparator peptide (in words) [1] | stimulation of PLC-β2 activity by peptide itself (in words) [1] | Substance | further results
13 |  | did not stimulate | K89A, H91A, and R96A triple substituted peptide: Gβ86-105 peptide with K89, H91 and R96 substituted simultaneously (TTNAVAAIPLASSWVMTCAY; UniProt P62873 86-105, looked up, variant K89A H91A R96A) | effect on Gβγ stimulation of PLC-β2 (in words) [1]: did not affect
14 |  | not capable of activating | m-TTN: Gβ86-105 peptide with Met-101 substituted by Asn (TTNKVHAIPLRSSWVNTCAY) | inhibition of Ca2+/CaM-stimulated AC1 activity by peptide alone (in words) (adenylyl cyclase 1 (AC1)): greatly reduced capacity to inhibit; blockade of Gβγ inhibition of Ca2+/CaM-stimulated AC1 (adenylyl cyclase 1 (AC1)): did not affect; inhibition of Gβγ-stimulated AC2 activity (adenylyl cyclase 2 (AC2)): much less efficacious; binding to PLC-β2 (in words) (PLC-β2): did not display measurable binding
15 | greatly reduced affinity |  | S97, 98C: Gβ86-105 peptide with serines 97 and 98 substituted with cysteine (TTNKVHAIPLRCCWVMTCAY) | 
16 |  | inactive | S97, 98D: Gβ86-105 peptide with serines 97 and 98 substituted (D per FIG. 7C legend; text says asparagine) (TTNKVHAIPLRDDWVMTCAY; not fully specified) | 
